Laboratory results taken from the supplement of paper PMC9170038.

Key:
MS2 coat protein [1] = assay: apparent KD of MS2 coat protein; higher = weaker reporter binding; settings: Eterna round: R101
Procedure: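 RNA-MaP: designed FMN/MS2 RNA switches (84 nt design region) are transcribed on-chip within common flanks and titrated with SNAP-549-labelled MS2 coat protein (about 1-3000 nM) in 100 mM Tris pH 7.5, 80 mM KCl, 4 mM MgCl2, without or with 200 uM FMN. Median apparent KD per design; activation ratio = KD,OFF / KD,ON.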

MS2 coat protein [2] = assay: apparent KD of MS2 coat protein, switch OFF state (with FMN for OFF switches, without FMN for ON switches); designed switch direction (-1 OFF switch, 1 ON switch): 1; higher = weaker reporter binding; settings: FMN input: 0 or 200 uM; Eterna round: R93 (includes R88 designs)
In short: (§1)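 Each design's apparent KD comes from the median of binding-curve fits to its normalised clusters. Those clusters carried RNA switches transcribed on-chip from Illumina sequencing clusters. SNAP-549-labelled MS2 coat protein was titrated onto them in twofold steps (0.7 or 1.5 nM to 3 µM; per step 0.8–1.5 h down to 10–20 min). Conditions were 100 mM Tris-HCl pH 7.5, 80 mM KCl, 4 mM MgCl2, without or with constant ligand.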

MS2 coat protein [3] = assay: apparent KD of MS2 coat protein, switch ON state; designed switch direction (-1 OFF switch, 1 ON switch): 1; higher = weaker reporter binding; settings: FMN input: 0 or 200 uM; Eterna round: R93 (includes R88 designs)
In short: as §1

| Sequence | apparent KD of MS2 coat protein (MS2 coat protein [1]; input ligand: FMN 200 uM) [nM] | apparent KD of MS2 coat protein (MS2 coat protein [1]; input ligand: none) [nM] | apparent KD of MS2 coat protein (MS2 coat protein [2]) [nM] | apparent KD of MS2 coat protein (MS2 coat protein [3]) [nM] |
| --- | --- | --- | --- | --- |
| GCAGCUAAUGCAGGAUAUCAGCACGUGUAGUGCUGAGAAGGGCACAUGAGGAUACCCACUGUGAUCAAUUAAUAUUAAUGCUGC [salish99#hingeEx3_55-58_002] (puzzle (switch architecture): Exclusion NG 1) | 18.4 | 50.2 | – | – |
| GGUACUCAAAGAGUACCAAUACGAACAUGAGGAUCACCCAUGUAGGAUAUGCUACUCAAAGAGUAGCAGAAGGACAUGUGUCUA [jl-ex3-3.01 #GC_VS_GU_SWITCHING] (puzzle (switch architecture): Exclusion NG 3) | 55.5 | 13.9 | – | – |
| AGGUAUACUUAGAAGGGCUCCAGCAAAGCUGGAGCAGGAUAUGAGGAUCACCCAUGUCACCUGACGGUCGAAACGACCGUCAGG [#SharedSequence - IExNG1: 9-1] (puzzle (switch architecture): Inverted Exclusion NG 1) | 76.4 | 22.8 | – | – |
| UGGAGACAUGAGGAUCACCCAUGUGAGAAGAGGCGAGGAUAUCGAAAAAAAAAAAAAAAACGAGAAGGCGCGAGAA [salish99-SS1-007] | – | – | 56.3 | 28.9 |
| AUUACAUAUAGUUAGGAUAUCAUAUGUAAGACAUGAGGAUCACCCAUGUCCUAAGAAUAGGUAAAUGAGAAGGAACAGUGAGUAU [JR_SS002_Sub419] | – | – | 23.9 | 17.1 |
| AAAAGACAUGAGGAUCACCCAUGUGAAAACGUAGGAGGAUAUGUCUGGAAACCAGACUGGACAGAAGGCCUGUGUC [SS1 - 32] | – | – | 33.1 | 26.7 |
| AAUGAACAUGAGGAUCACCCAUGUUCUAAUAGUUGAGGAUAUAUGGGUGAAAAUAGCACAGUAGAAGGCGAGUGUA [SameState1 Malc#17] | – | – | 262 | 408 |
| AAGAAACAUGAGGAUCACCCAUGUAAGAUUAUGGGAGGAUAUGCGAAAAGAAACAAAGAAGCAGAAGGCCUAAGAA [75%, Ex5 sub 1, 4] | – | – | 77.3 | 15.7 |
| AAGAAACAUGAGGAUCACCCAUGUAGAAACAUGGGAGGAUAUACAAAGACGAAAGUCAAAGUAGAAGGCCUAAAAA [Mat - Same State 1 - Mod - D165] | – | – | 141 | 88.6 |
| AAACUGGAGGACAAGGAUAUGUGCUCUACGACAUGAGGAUCACCCAUGUGAGACGUAGUAGUGAAACAGAAGGUGUCCUAUUGUA [Tiarri] | – | – | 20.4 | 11 |
| AGCGAACAUGAGGAUCACCCAUGUCCCGCGAAUCAAGGAUAUGGGCAGAUGAGUCCUGCGCCAGAAGGUGAGUAAA [Rigeesar] | – | – | 132 | 49.6 |
| AAAACACAUGAGGAUCACCCAUGUGCAAAAUUCGCAGGAUAUUCCUCAAUUAAAUGAAAGGAAGAAGGGUGAUAAA [Nob's Hobby 32 - Jieux - Same State 1] | – | – | 50.2 | 17.8 |
| AAAAAACAUGAGGAUCACCCAUGUCGAAAGACAUGAGGAUAUGUACAGACUUCGGUCUGUACAGAAGGCAUGAAAA [SS1 - 1012] | – | – | 79.3 | 114 |
| AGGAAACAUGAGGAUCACCCAUGUAUAAAAUAGGGAGGAUAUACUAAGACGAAAGUCAUAGUAGAAGGUCCAAAAA [76%, Meechl, 13] | – | – | 23.4 | 17.9 |
| GAAAAACAUGAGGAUCACCCAUGUAAGAUAAACACAGGAUAUGCGAAAAUAAAUAAAGAAGCAGAAGGGUGAAGAA [Mat - Same State 1 - Tesla mod - 73] | – | – | 26.5 | 11.1 |
| GAGGACAUAGUACAGGAUAUAUGAAUAGUCACAUGAGGAUCACCCAUGUGCAUUUAUAUGCGCACAUAGAAGGGUGGUAGUUAUC [SameState2 Malc#28] | – | – | 67 | 155 |
| AGAAAUAAAGCGAAGGAUAUCCAAACCUAAACAUGAGGAUCACCCAUGUAAAAGAAAAUAAAAUGGGAGAAGGUCGCAAAUAAGA [Designing denovo 14] | – | – | 22.8 | 13.5 |
